# Assay results taken from patent US20240325557A1, “TREATMENT OF CANCER” (INNATE PHARMA, priority 2020, published 2024).
# Positions count from the first letter of the chain named.
# T1: Nectin-4 Mutant 4 (A72P/G73N/G75S) (Homo sapiens, UniProt Q96NY8, A72P/G73N/G75S)
# T1 construct: expressed in transfected cells; host or cells: HEK293T
# T1 sequence (Q96NY8 32-510 A72P/G73N/G75S): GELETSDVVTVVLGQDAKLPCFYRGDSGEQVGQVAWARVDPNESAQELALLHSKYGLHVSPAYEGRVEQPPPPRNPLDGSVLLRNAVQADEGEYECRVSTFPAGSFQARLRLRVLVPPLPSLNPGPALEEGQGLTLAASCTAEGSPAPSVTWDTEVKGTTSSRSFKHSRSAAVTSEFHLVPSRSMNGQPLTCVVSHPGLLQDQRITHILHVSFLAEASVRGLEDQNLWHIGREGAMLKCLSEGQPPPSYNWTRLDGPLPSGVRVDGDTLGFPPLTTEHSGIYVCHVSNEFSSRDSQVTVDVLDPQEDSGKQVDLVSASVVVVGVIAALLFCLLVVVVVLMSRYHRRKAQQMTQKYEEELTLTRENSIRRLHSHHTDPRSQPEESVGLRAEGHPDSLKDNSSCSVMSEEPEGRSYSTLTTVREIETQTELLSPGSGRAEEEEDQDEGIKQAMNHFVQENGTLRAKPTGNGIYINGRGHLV
# T2: Nectin-4 Mutant 1 (S58P/G59D/Q61A/N106D/P107A) (Homo sapiens, UniProt Q96NY8, G59D/N106D/P107A/Q61A/S58P)
# T2 construct: expressed in transfected cells; host or cells: HEK293T
# T2 sequence (Q96NY8 32-510 S58P/G59D/Q61A/N106D/P107A): T1 sequence (Q96NY8 32-510 A72P/G73N/G75S) with S27P, G28D, Q30A, P41A, N42G, S44G, N75D, P76A
# T3: Nectin-4 Mutant 7bis (A72P/G73N/K197T/S199A) (Homo sapiens, UniProt Q96NY8, A72P/G73N/K197T/S199A)
# T3 construct: expressed in transfected cells; host or cells: HEK293T
# T3 sequence (Q96NY8 32-510 A72P/G73N/K197T/S199A): T1 sequence (Q96NY8 32-510 A72P/G73N/G75S) with S44G, K166T, S168A
# T4: Nectin-4 Mutant 3 (A76S/Q77R/E78A/S91N) (Homo sapiens, UniProt Q96NY8, A76S/E78A/Q77R/S91N)
# T4 construct: expressed in transfected cells; host or cells: HEK293T
# T4 sequence (Q96NY8 32-510 A76S/Q77R/E78A/S91N): T1 sequence (Q96NY8 32-510 A72P/G73N/G75S) with P41A, N42G, S44G, A45S, Q46R, E47A, S60N
# B1: 5E7 (antibody, V domains shown)
# VH: QVQLQQPGAELVKPGASVKLSCKASGYIFTSYWMHWVKQRPGQGLEWIGEIDPSDSYTNYNQKFKGKATLTLDKSSSTTYMQLSSLTSEDSAVYYCVRGYGNYGDYWGQGTTLTVSS
# VL: DVVMTQAAFSNPVTLGTSASISCRSSKSLLHSNGITYLYWYLQKPGQSPQLLIYQMSNLASGVPDRFSSSGSGTDFTLRISRVEAEDVGVYYCAQNLELPWTFGGGTKLEIK
# B2: 10B12: anti-Nectin-4 antibody, VH SEQ ID NO: 24, VL SEQ ID NO: 25, binds junction of domain C1 and V (antibody, listed as Mus musculus, V domains shown)
# VH: B1 VH with I28T, L72V, T79A
# VL: B1 VL with V2I
# B3: N41 (antibody, V domains shown)
# VH: QVQLKQSGPGLVQPSQSLSITCTVSGFSLTNYGVHWVRQSPGKGLEWLGVIWSGGSTDYNAAFISRLSISKDTSKSQVFFKMNSLQADDTAIYYCARELIHAMDNWGQGTSVTVSS
# VL: DIQMTQSPASLSVSVGETVTITCRASENIYSNLAWYQQKQGNSPQLLVFAATNLADGVPSRFSGSGSGTQYSLKINSLQSEDFGTYYCQHFWGTPTFGGGTKLEIK
# Target: T1, Nectin-4 Mutant 4 (A72P/G73N/G75S)
# Test: Binding to cell surface expressed Nectin-4 point mutant
# Conditions: HEK-293T
# Description: (§1) Combined with the published structures of the Nectin-4 domains, Nectin-4 mutations at surface exposed amino acids residues were designed. Nectin-4 domain structure was modelled based on Protein Data Bank reference: 4FRW (domains V et C1). Human Nectin-4 used was NCBI Reference Sequence: NP_112178.2, mouse Nectin-4 used was NCBI Reference Sequence: AAL79833.1, cynomolgus Nectin-4 used was NCBI Reference Sequence: XP_005541277.1, rat Nectin-4 used was NCBI Reference Sequence: NP_001102546.1. The cells expressing the Nectin-4 mutants are then be used for testing anti-Nectin-4 antibodies for loss of binding to different Nectin-4 mutants to identify antibodies that bind to the same site on Nectin-4. […] FIGS. 12A and 12B show a molecular model of the human Nectin-4 protein, indicating the position of substituted residues in mutants 7 (12A) and in mutants 7bis (12B); these mutants are in the C1 domain identify two sites at the junction of domain C1 and V domain that are on opposing faces of the Nectin-4 protein.
# (§2) Nectin-4 mutants were generated by PCR. The sequences amplified were run on agarose gel and purified using the Macherey Nagel PCR Clean-Up Gel Extraction kit. The purified PCR products generated for each mutant were then ligated into an expression vector, with the ClonTech InFusion system. The vectors containing the mutated sequences were prepared as Miniprep and sequenced. After sequencing, the vectors containing the mutated sequences were prepared as Midiprep using the Promega PureYield™ Plasmid Midiprep System. HEK293T cells were grown in DMEM medium (Invitrogen), transfected with vectors using Invitrogen's Lipofectamine 2000 and incubated at 37° C. in a CO2 incubator for 48 hours prior to testing for transgene expression. The targeted amino acid mutations are shown in Table 2 below, listing the residue present in wild-type Nectin-4/position of residue/residue present in mutant Nectin-4, with position reference being to the Nectin-4 protein with leader peptide shown in SEQ ID NO: 1.
row,Molecule,association with Nectin-4 Mutant 4
1,B1,+
2,B2,+
3,B3,+

# Target: T2, Nectin-4 Mutant 1 (S58P/G59D/Q61A/N106D/P107A)
# Test: as above
# Conditions: HEK-293T
# Description: as §1, §2
row,Molecule,association with Nectin-4 Mutant 1
1,B1,+
2,B2,+
3,B3,−

# Target: T3, Nectin-4 Mutant 7bis (A72P/G73N/K197T/S199A)
# Test: as above
# Conditions: HEK-293T
# Description: as §1, §2
row,Molecule,association with Nectin-4 Mutant 7bis
1,B1,−
2,B2,−
3,B3,+

# Target: T4, Nectin-4 Mutant 3 (A76S/Q77R/E78A/S91N)
# Test: as above
# Conditions: HEK-293T
# Description: as §1, §2
row,Molecule,association with Nectin-4 Mutant 3
1,B1,+
2,B2,+
3,B3,+
